Measured values taken from the supplement of paper PMC9112550, “Optimization of the antimicrobial peptide Bac7 by deep mutational scanning” (BMC Biology, 2022).

Test system: Escherichia coli TOP10
Test: shrunken log2 fold change of peptide-encoding DNA abundance (4.5 h post-induction vs induction); higher = less antimicrobial activity (less host growth inhibition)
Conditions: time post-induction: 4.5 h; library: site-saturation at positions 5, 18, 19, 20
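Also: peptides expressed intracellularly from a pBAD plasmid library in pooled LB shake-flask culture, induced with 0.3% L-arabinose, DNA abundance read by NGS, three biological replicates, DESeq2 with apeglm shrinkage.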

Sequence | shrunken log2 fold change
RRIRWRPPRLPRPRPRPEADPRP | 1.5
RRIRHRPPRLPRPRPRPKTIPRP | -0.486
RRIRGRPPRLPRPRPRPGSEPRP | 0.864
RRIRIRPPRLPRPRPRPFVLPRP | -0.113
RRIRSRPPRLPRPRPRPFDHPRP | -0.488
RRIRQRPPRLPRPRPRPIDKPRP | 0.0866
RRIRHRPPRLPRPRPRPLDFPRP | -0.342
RRIRFRPPRLPRPRPRPRNSPRP | 0.168
RRIRYRPPRLPRPRPRPKGAPRP | 0.194
RRIRNRPPRLPRPRPRPACSPRP | 0.0895
RRIRCRPPRLPRPRPRPRESPRP | 0.155
RRIRWRPPRLPRPRPRPWLVPRP | -0.237
RRIRIRPPRLPRPRPRPSCVPRP | -0.544
RRIRMRPPRLPRPRPRPPTCPRP | 0.183
RRIRERPPRLPRPRPRPNMTPRP | -0.276
RRIRNRPPRLPRPRPRPLNWPRP | -0.269
RRIRYRPPRLPRPRPRPITLPRP | -0.323
RRIRFRPPRLPRPRPRPATTPRP | -0.0275
RRIRSRPPRLPRPRPRPDKEPRP | 0.0247
RRIRFRPPRLPRPRPRPNNWPRP | -0.369
RRIRFRPPRLPRPRPRPDTRPRP | -0.324
RRIRCRPPRLPRPRPRPSGHPRP | -0.422
RRIRFRPPRLPRPRPRPKTAPRP | 0.295
RRIRDRPPRLPRPRPRPMTHPRP | 0.0105
RRIRKRPPRLPRPRPRPSPSPRP | 0.452

Sequence | shrunken log2 fold change
RRIRIRPPRLPRPRPRPEDPPRP | 0.0426
RRIRQRPPRLPRPRPRPCTLPRP | -0.56
RRIRTRPPRLPRPRPRPDNYPRP | -0.0497
RRIRNRPPRLPRPRPRPGEGPRP | 0.196
RRIRIRPPRLPRPRPRPCSGPRP | -0.852
RRIRQRPPRLPRPRPRPHFVPRP | -0.208
RRIRARPPRLPRPRPRPDHMPRP | -0.328
RRIRVRPPRLPRPRPRPEHSPRP | 0.115
RRIRARPPRLPRPRPRPMAHPRP | 0.733
RRIRLRPPRLPRPRPRPYDDPRP | -0.167
RRIRGRPPRLPRPRPRPPHNPRP | 0.585
RRIRFRPPRLPRPRPRPPKDPRP | 0.248
RRIRNRPPRLPRPRPRPMATPRP | -0.0123
RRIRHRPPRLPRPRPRPYTAPRP | -0.735
RRIRPRPPRLPRPRPRPYIRPRP | -0.297
RRIRQRPPRLPRPRPRPVDWPRP | 0.39
RRIRGRPPRLPRPRPRPFESPRP | 0.0306
RRIRQRPPRLPRPRPRPTTHPRP | 0.00963
RRIRNRPPRLPRPRPRPIFIPRP | -0.44
RRIRYRPPRLPRPRPRPCPQPRP | -0.0849
RRIRPRPPRLPRPRPRPCTIPRP | -0.536
RRIRIRPPRLPRPRPRPRKYPRP | -0.561
RRIRQRPPRLPRPRPRPFITPRP | -0.569
RRIRFRPPRLPRPRPRPNASPRP | -0.304
RRIRARPPRLPRPRPRPDEVPRP | 0.446

Sequence | shrunken log2 fold change
RRIRKRPPRLPRPRPRPLQGPRP | 0.154
RRIRTRPPRLPRPRPRPAGPPRP | -0.257
RRIRPRPPRLPRPRPRPVVAPRP | 0.578
RRIRIRPPRLPRPRPRPNDQPRP | -0.43
RRIRWRPPRLPRPRPRPVKGPRP | -0.0905
RRIRKRPPRLPRPRPRPCADPRP | 0.006
RRIRRRPPRLPRPRPRPGMGPRP | 0.581
RRIRIRPPRLPRPRPRPHYIPRP | -0.155
RRIRARPPRLPRPRPRPTDYPRP | -0.0499
RRIRWRPPRLPRPRPRPRMEPRP | 0.439
RRIRDRPPRLPRPRPRPRCCPRP | 0.18
RRIRRRPPRLPRPRPRPWTAPRP | -0.106
RRIRHRPPRLPRPRPRPSCCPRP | -0.343
RRIRPRPPRLPRPRPRPMKYPRP | -0.157
RRIRSRPPRLPRPRPRPVWHPRP | 0.182
RRIRHRPPRLPRPRPRPRLMPRP | 0.121
RRIRARPPRLPRPRPRPGPAPRP | 0.873
RRIRARPPRLPRPRPRPSTCPRP | 0.0421
RRIRARPPRLPRPRPRPHPWPRP | -0.00896
RRIRRRPPRLPRPRPRPTSDPRP | 0.256
RRIRMRPPRLPRPRPRPCRYPRP | 0.11
RRIRFRPPRLPRPRPRPLQMPRP | 0.236
RRIRYRPPRLPRPRPRPKPRPRP | 0.515
RRIRPRPPRLPRPRPRPLENPRP | -0.00388
RRIRSRPPRLPRPRPRPIGSPRP | 0.136

Sequence | shrunken log2 fold change
RRIRFRPPRLPRPRPRPIGKPRP | -0.0112
RRIRRRPPRLPRPRPRPNKTPRP | -0.00203
RRIRCRPPRLPRPRPRPQTRPRP | 0.471
RRIRHRPPRLPRPRPRPYSIPRP | -9.97e-05
RRIRRRPPRLPRPRPRPFFWPRP | 0.381
RRIRFRPPRLPRPRPRPWRSPRP | -0.0939
RRIRIRPPRLPRPRPRPSKVPRP | -1
RRIRIRPPRLPRPRPRPRSNPRP | -0.0529
RRIRGRPPRLPRPRPRPLQSPRP | 0.746
RRIRHRPPRLPRPRPRPDYKPRP | 0.00107
RRIRERPPRLPRPRPRPPTFPRP | -0.767
RRIRARPPRLPRPRPRPANPPRP | 0.425
RRIRKRPPRLPRPRPRPLNNPRP | -0.0972
RRIRCRPPRLPRPRPRPCTTPRP | -0.427
RRIRYRPPRLPRPRPRPRCKPRP | -0.573
RRIRVRPPRLPRPRPRPMSDPRP | 0.032
RRIRDRPPRLPRPRPRPAAVPRP | 0.609
RRIRWRPPRLPRPRPRPYLCPRP | -0.447
RRIRERPPRLPRPRPRPIDPPRP | 0.0954
RRIRVRPPRLPRPRPRPIMEPRP | 0.0384
RRIRQRPPRLPRPRPRPTSFPRP | -0.0413
RRIRKRPPRLPRPRPRPMQYPRP | -0.0135
RRIRYRPPRLPRPRPRPDIWPRP | -0.00585
RRIRTRPPRLPRPRPRPPINPRP | -0.338
RRIRHRPPRLPRPRPRPTYNPRP | -0.758

Sequence | shrunken log2 fold change
RRIRQRPPRLPRPRPRPTFEPRP | -0.177
RRIRRRPPRLPRPRPRPHVLPRP | 0.0842
RRIRVRPPRLPRPRPRPTFQPRP | -0.0952
RRIRERPPRLPRPRPRPEMNPRP | 0.0387
RRIRPRPPRLPRPRPRPCQGPRP | 0.056
RRIRDRPPRLPRPRPRPMEMPRP | 0.0165
RRIRQRPPRLPRPRPRPFVIPRP | -0.131
RRIRMRPPRLPRPRPRPRYQPRP | -0.0321
RRIRGRPPRLPRPRPRPAQSPRP | 0.723
RRIRLRPPRLPRPRPRPIHFPRP | -0.77
RRIRFRPPRLPRPRPRPTGLPRP | -0.118
RRIRIRPPRLPRPRPRPVIGPRP | -0.727
RRIRIRPPRLPRPRPRPDRGPRP | -0.0332
RRIRIRPPRLPRPRPRPRWMPRP | 0.341
RRIRDRPPRLPRPRPRPQNSPRP | -0.24
RRIRRRPPRLPRPRPRPMLQPRP | -0.274
RRIRPRPPRLPRPRPRPCAGPRP | 0.122
RRIRWRPPRLPRPRPRPYFGPRP | -0.168
RRIRLRPPRLPRPRPRPANCPRP | -0.291
RRIRARPPRLPRPRPRPTAGPRP | 0.902
RRIRTRPPRLPRPRPRPGETPRP | -0.105
RRIRQRPPRLPRPRPRPVIIPRP | -1.01
RRIRSRPPRLPRPRPRPDPFPRP | -0.214
RRIRRRPPRLPRPRPRPICPPRP | -0.0986
RRIRFRPPRLPRPRPRPFACPRP | -0.189

Sequence | shrunken log2 fold change
RRIRSRPPRLPRPRPRPCCIPRP | -0.197
RRIRFRPPRLPRPRPRPENIPRP | 0.0737
RRIRMRPPRLPRPRPRPEENPRP | 3.95
RRIRKRPPRLPRPRPRPRMCPRP | -0.211
RRIRDRPPRLPRPRPRPRTRPRP | 0.0925
RRIRQRPPRLPRPRPRPELKPRP | 0.0791
RRIRNRPPRLPRPRPRPTTYPRP | -0.228
RRIRKRPPRLPRPRPRPNQMPRP | 0.234
RRIRKRPPRLPRPRPRPVPVPRP | 0.253
RRIRCRPPRLPRPRPRPSFHPRP | -0.841
RRIRRRPPRLPRPRPRPFSMPRP | 0.0721
RRIRHRPPRLPRPRPRPFRQPRP | 0.0583
RRIRPRPPRLPRPRPRPFIVPRP | -0.257
RRIRLRPPRLPRPRPRPMVYPRP | -0.0262
RRIRGRPPRLPRPRPRPWKKPRP | -0.00973
RRIRKRPPRLPRPRPRPSPTPRP | -0.00658
RRIRARPPRLPRPRPRPPQYPRP | 0.33
RRIRERPPRLPRPRPRPSGMPRP | -0.46
RRIRFRPPRLPRPRPRPISAPRP | 0.0624
RRIRPRPPRLPRPRPRPNEHPRP | -0.263
RRIRLRPPRLPRPRPRPACYPRP | -0.202
RRIRRRPPRLPRPRPRPIDQPRP | 0.696
RRIRHRPPRLPRPRPRPFALPRP | 0.051
RRIRCRPPRLPRPRPRPMWWPRP | 0.396
RRIRSRPPRLPRPRPRPPSTPRP | 0.141
